# T1: gD epitope-tagged LgR5 22-123 (amino acids 22-123 of SEQ ID NO: 67) with a C-terminal GPI anchor on … (human, UniProt O75473 22-123, C-terminal GPI anchor)
# T1 sequence: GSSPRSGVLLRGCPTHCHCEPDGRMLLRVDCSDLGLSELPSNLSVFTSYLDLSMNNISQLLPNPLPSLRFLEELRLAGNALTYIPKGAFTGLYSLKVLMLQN
# T2: gD epitope-tagged LgR5 22-323 (amino acids 22-323 of SEQ ID NO: 67) with a C-terminal GPI anchor on … (human, UniProt O75473 22-323, C-terminal GPI anchor)
# T2 sequence: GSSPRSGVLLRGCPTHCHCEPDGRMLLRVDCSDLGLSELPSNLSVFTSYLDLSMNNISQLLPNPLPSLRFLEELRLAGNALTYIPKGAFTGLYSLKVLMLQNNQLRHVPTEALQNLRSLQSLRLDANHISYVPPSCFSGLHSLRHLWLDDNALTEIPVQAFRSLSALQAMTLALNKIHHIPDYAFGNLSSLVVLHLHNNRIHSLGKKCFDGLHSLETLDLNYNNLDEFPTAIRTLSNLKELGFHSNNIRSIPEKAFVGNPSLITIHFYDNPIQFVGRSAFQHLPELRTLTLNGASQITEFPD
# T3: gD epitope-tagged LgR5 424-907 (amino acids 424-907 of SEQ ID NO: 67) on transiently transfected 293 cells (human, UniProt O75473 424-907)
# T3 sequence: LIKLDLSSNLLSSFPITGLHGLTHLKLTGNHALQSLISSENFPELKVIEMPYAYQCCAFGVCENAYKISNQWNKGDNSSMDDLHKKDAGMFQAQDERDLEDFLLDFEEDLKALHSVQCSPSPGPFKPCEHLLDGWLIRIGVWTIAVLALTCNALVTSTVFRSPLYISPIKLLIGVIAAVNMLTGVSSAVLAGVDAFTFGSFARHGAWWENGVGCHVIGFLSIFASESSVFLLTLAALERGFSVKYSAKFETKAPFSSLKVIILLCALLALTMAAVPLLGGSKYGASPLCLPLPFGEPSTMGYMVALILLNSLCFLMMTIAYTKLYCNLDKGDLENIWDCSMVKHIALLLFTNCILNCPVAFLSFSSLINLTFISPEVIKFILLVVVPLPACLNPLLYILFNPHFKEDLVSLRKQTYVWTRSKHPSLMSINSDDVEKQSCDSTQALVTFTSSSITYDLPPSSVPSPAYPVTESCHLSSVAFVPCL
# T4: human LgR5 ECD (amino acids 22-557 fused to His-Fc expressed in a baculovirus system, or amino acids 22-558 … (human, UniProt O75473 22-557))
# T4 construct: not shown: C-terminal His-tagged Fc
# T4 sequence: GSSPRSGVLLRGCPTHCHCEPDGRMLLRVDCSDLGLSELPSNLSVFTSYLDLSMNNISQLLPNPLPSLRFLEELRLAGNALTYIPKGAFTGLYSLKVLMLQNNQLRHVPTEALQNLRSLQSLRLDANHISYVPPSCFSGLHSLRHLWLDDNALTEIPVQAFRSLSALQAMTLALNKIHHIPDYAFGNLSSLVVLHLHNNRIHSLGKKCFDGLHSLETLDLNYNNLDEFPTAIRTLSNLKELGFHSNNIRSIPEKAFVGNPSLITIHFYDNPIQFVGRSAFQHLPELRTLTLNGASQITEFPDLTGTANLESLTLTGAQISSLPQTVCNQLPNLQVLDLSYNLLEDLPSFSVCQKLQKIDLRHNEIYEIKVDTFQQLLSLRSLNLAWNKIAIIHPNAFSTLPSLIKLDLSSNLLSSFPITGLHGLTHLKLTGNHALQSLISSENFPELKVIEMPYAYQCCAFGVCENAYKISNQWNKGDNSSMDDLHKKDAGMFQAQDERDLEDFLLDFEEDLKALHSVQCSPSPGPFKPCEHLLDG
# T5: gD epitope-tagged mouse LgR5 expressed on stably transfected 293 cells (mouse, UniProt Q9Z1P4 22-907)
# T5 construct: also called gD-tagged mouse LgR5
# T5 sequence: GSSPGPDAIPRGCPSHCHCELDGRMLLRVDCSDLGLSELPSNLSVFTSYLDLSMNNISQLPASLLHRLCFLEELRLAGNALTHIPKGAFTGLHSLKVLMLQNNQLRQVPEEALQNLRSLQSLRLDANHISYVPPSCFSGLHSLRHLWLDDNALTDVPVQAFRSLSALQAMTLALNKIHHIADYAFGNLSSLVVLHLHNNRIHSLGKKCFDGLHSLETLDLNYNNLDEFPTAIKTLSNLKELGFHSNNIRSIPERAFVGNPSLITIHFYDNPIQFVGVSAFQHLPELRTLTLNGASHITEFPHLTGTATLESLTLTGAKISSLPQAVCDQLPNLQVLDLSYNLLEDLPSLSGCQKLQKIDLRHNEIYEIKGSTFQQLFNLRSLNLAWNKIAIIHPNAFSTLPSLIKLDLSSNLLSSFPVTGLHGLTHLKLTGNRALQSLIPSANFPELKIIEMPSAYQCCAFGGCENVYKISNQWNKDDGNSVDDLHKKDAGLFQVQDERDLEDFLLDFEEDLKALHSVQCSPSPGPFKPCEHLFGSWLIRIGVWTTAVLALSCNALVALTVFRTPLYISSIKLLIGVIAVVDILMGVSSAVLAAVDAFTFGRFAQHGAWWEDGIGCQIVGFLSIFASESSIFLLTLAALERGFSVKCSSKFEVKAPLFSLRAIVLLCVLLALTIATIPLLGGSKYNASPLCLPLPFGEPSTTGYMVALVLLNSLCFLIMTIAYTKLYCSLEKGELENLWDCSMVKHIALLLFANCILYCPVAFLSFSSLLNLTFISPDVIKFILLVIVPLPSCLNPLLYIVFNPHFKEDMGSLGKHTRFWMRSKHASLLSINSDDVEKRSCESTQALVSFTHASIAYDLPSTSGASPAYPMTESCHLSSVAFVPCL
# B1: monoclonal antibody 3G12 (antibody, V domains shown)
# VH: QVQLQQPGAEMVKPGASVKLSCKASVDTFNSYWMHWVKQRPGQGLEWIGEINPSNGRTNYIEKFKNRATVTVDKSSSTAFMQLSSLTSEDSAVYYCATGWYFDVWGAGTTVTVSS
# VL: DVVMTQTPLSLPVSLGDQASISCRSSQSLVHSNGNTYLQWYLQKPGQSPKLLIYKVSNRFSGVPDRFSGSGSGTDFTLKISRVEAEDLGIYFCSQSTHFPYTFGGGTKLEIKR
# notes: The variable domains are the same in both forms; also called m3G12; mu3G12
# Columns and labels:
# [1] = target: T1, gD epitope-tagged LgR5 22-123 (amino …); test: FACS on transiently transfected 293 cells
# [2] = target: T2, gD epitope-tagged LgR5 22-323 (amino …); test: FACS on transiently transfected 293 cells
# [3] = target: T3, gD epitope-tagged LgR5 424-907 (amino …); test: FACS on transiently transfected 293 cells
# [4] = target: T4, human LgR5 ECD (amino acids 22-557 …); test: SPR (BIAcore-3000), antibody captured by anti-human Fc, LgR5 ECD-Fc injected
# [5] = target: T5, gD epitope-tagged mouse LgR5 expressed …; test: FACS on 293 cells stably transfected with gD epitope-tagged LgR5, 10 ug/ml antibody, R-Phycoerythrin goat anti-human detection
# Description: Monoclonal antibodies were tested to determine if they cross-react with LgR5 from species other than human. […] Residues that are identical among all four species are indicated by asterisks (*). […] YW353 antibody binds human and cynomolgus monkey LgR5, but not rat or mouse LgR5. Ch8E11 and hu8E11.v2 antibodies bind all four species of LgR5, although binding to rat LgR5 is not as strong as binding to human, cynomolgus monkey, or mouse LgR5. 2H6 antibody binds to human and mouse LgR5, and was not tested for binding to cynomolgus monkey or rat LgR5.
binder,measurement,setting,value
B1,binding result,[1],no binding (tested: 10 µg/ml)
same,binding result,[2],no binding (tested: 10 µg/ml)
same,binding result,[3],no binding (tested: 10 µg/ml)
same,Kd,[4],72 nM
same,binding result,[5],binds

# Reference: patent US20130336885A1 (Genentech, published 2013)
